Test results reported in patent US20230118307A1, “THERAPEUTIC USE OF LONG-ACTING CONJUGATE OF TRIPLE AGONIST HAVING ACTIVITIES TO ALL OF GLUCAGON/GLP-1/GIP RECEPTORS FOR LUNG DISEASE” (HANMI PHARM. CO., LTD., priority 2020, published 2023).
Positions of bridges follow the written chain, without caps; N, C: chain ends. Non-standard residues stand in square brackets, D forms with d. No end group written: not given here. *: point of attachment. Acetyl(2-(4-imidazolyl)) = O=C(Cc1c[nH]cn1)*; Aib = CC(C)(N)C(=O)O

T1: human GIP receptor (human, UniProt P48546 22-466)
T1 sequence (looked up): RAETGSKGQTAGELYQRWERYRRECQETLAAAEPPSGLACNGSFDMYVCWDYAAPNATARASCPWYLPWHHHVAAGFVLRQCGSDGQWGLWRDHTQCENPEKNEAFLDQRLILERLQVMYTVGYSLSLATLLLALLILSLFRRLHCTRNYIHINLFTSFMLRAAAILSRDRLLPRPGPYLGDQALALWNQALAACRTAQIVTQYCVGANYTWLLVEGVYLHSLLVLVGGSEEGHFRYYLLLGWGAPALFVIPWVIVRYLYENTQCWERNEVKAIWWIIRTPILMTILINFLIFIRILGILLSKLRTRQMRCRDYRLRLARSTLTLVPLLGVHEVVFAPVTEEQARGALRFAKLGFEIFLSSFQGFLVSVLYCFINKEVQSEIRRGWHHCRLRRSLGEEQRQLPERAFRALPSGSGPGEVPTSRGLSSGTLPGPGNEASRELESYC


These binders were tested against human GCG receptor (human, UniProt P47871 26-477) (assay: cell-based or functional assay).
Chain of human GCG receptor (P47871 26-477): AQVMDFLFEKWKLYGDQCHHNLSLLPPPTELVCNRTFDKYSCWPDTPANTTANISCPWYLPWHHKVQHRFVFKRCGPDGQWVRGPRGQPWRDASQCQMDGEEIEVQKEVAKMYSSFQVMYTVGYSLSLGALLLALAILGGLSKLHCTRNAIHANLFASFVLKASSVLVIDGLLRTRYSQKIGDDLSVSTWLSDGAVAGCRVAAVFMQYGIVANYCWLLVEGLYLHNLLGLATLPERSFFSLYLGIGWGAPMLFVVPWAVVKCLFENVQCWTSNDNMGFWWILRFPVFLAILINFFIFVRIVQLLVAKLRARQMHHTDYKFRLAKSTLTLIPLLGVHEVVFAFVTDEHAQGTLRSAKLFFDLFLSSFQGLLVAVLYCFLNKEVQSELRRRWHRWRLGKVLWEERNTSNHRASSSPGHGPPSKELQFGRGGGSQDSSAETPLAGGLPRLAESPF
With [Acetyl(2-(4-imidazolyl))][Aib]QGTFTSDYSKCLDEKRAKEFVQWLLDHHPSSGQPPPS (bridge 16-20) [triple agonist of SEQ ID NO: 74] the “In vitro Activity Compared to Native Peptide (%) vs. Glucagon” value was 0.9%.
With H[Aib]QGTFTSDVSKYLDGQAAQEFVAWLLKGC [triple agonist of SEQ ID NO: 8] the “In vitro Activity Compared to Native Peptide (%) vs. Glucagon” value was 0.1%.
For Y[Aib]QGTFTSDYSKYLDEKAAKEFVQWLLDHHPSSGQPPPSC (bridge 16-20) [triple agonist of SEQ ID NO: 75], the “In vitro Activity Compared to Native Peptide (%) vs. Glucagon” value was 8.5%.
Y[Aib]QGTFTSDYSKYLDEKRAKDFVQWLLDHHPSSGQPPPSC (bridge 16-20) [triple agonist of SEQ ID NO: 76] was tested, and the “In vitro Activity Compared to Native Peptide (%) vs. Glucagon” value was 47.6%.
In the case of Y[Aib]QGTFTSDYSKYLDEKAAKDFVQWLLDHHPSSGQPPPSC (bridge 16-20) [triple agonist of SEQ ID NO: 77], the “In vitro Activity Compared to Native Peptide (%) vs. Glucagon” value is reported as 12.2%.
In the case of H[Aib]QGTFTSDYSKYLDEKRQKEFVQWLLDTKC (bridge 16-20) [triple agonist of SEQ ID NO: 78], the “In vitro Activity Compared to Native Peptide (%) vs. Glucagon” value is reported as 14%.
H[Aib]EGTFTSDYSIAMDEIHQKDFVNWLLAQKC (bridge 16-20) [triple agonist of SEQ ID NO: 79] was tested, and the “In vitro Activity Compared to Native Peptide (%) vs. Glucagon” value was 4.9%.
For H[Aib]EGTFTSDYSIAMDEIHQKDFVDWLLAEKC (bridge 16-20) [triple agonist of SEQ ID NO: 80], the “In vitro Activity Compared to Native Peptide (%) vs. Glucagon” value was 0%.
With [Acetyl(2-(4-imidazolyl))][Aib]QGTFTSDYSKYLDEKRQKEFVQWLLNTC (bridge 16-20) [triple agonist of SEQ ID NO: 81] the “In vitro Activity Compared to Native Peptide (%) vs. Glucagon” value was 0.3%.
For [Acetyl(2-(4-imidazolyl))][Aib]QGTFTSDYSKYLDEKRQKEFVQWLLDTC (bridge 16-20) [triple agonist of SEQ ID NO: 82], the “In vitro Activity Compared to Native Peptide (%) vs. Glucagon” value was 1.1%.
In the case of [Acetyl(2-(4-imidazolyl))][Aib]EGTFTSDYSIAMDEIHQKDFVNWLLAQC (bridge 16-20) [triple agonist of SEQ ID NO: 83], the “In vitro Activity Compared to Native Peptide (%) vs. Glucagon” value is reported as 1.3%.
In the case of [Acetyl(2-(4-imidazolyl))][Aib]EGTFTSDYSIAMDEIHQKDFVDWLLAEC (bridge 16-20) [triple agonist of SEQ ID NO: 84], the “In vitro Activity Compared to Native Peptide (%) vs. Glucagon” value is reported as less than 0.1%.
With H[Aib]QGTFTSDVSKYLDGQAAQEFVAWLLAGC [triple agonist of SEQ ID NO: 9] the “In vitro Activity Compared to Native Peptide (%) vs. Glucagon” value was 0.13%.
For [Acetyl(2-(4-imidazolyl))][Aib]QGTFTSDYSIAMDEIHQKDFVNWLLAQC (bridge 16-20) [triple agonist of SEQ ID NO: 85], the “In vitro Activity Compared to Native Peptide (%) vs. Glucagon” value was less than 0.1%.
In the case of [Acetyl(2-(4-imidazolyl))][Aib]QGTFTSDYSKYLDEKRQKEFVNWLLAQC (bridge 16-20) [triple agonist of SEQ ID NO: 86], the “In vitro Activity Compared to Native Peptide (%) vs. Glucagon” value is reported as 0.4%.

What follows are binders tested against human GLP-1 receptor (human, UniProt P43220 24-463) (assay: cell-based or functional assay).
In the case of [Acetyl(2-(4-imidazolyl))][Aib]QGTFTSDYSKCLDEKRAKEFVQWLLDHHPSSGQPPPS (bridge 16-20) [triple agonist of SEQ ID NO: 74], the “In vitro Activity Compared to Native Peptide (%) vs. GLP-1” value is reported as 12.9%.
For H[Aib]QGTFTSDVSKYLDGQAAQEFVAWLLKGC [triple agonist of SEQ ID NO: 8], the “In vitro Activity Compared to Native Peptide (%) vs. GLP-1” value was 14.2%.
Y[Aib]QGTFTSDYSKYLDEKAAKEFVQWLLDHHPSSGQPPPSC (bridge 16-20) [triple agonist of SEQ ID NO: 75] was tested, and the “In vitro Activity Compared to Native Peptide (%) vs. GLP-1” value was 35.1%.
In the case of Y[Aib]QGTFTSDYSKYLDEKRAKDFVQWLLDHHPSSGQPPPSC (bridge 16-20) [triple agonist of SEQ ID NO: 76], the “In vitro Activity Compared to Native Peptide (%) vs. GLP-1” value is reported as 10.3%.
In the case of Y[Aib]QGTFTSDYSKYLDEKAAKDFVQWLLDHHPSSGQPPPSC (bridge 16-20) [triple agonist of SEQ ID NO: 77], the “In vitro Activity Compared to Native Peptide (%) vs. GLP-1” value is reported as 38.7%.
For H[Aib]QGTFTSDYSKYLDEKRQKEFVQWLLDTKC (bridge 16-20) [triple agonist of SEQ ID NO: 78], the “In vitro Activity Compared to Native Peptide (%) vs. GLP-1” value was 51%.
In the case of H[Aib]EGTFTSDYSIAMDEIHQKDFVNWLLAQKC (bridge 16-20) [triple agonist of SEQ ID NO: 79], the “In vitro Activity Compared to Native Peptide (%) vs. GLP-1” value is reported as 41.5%.
With H[Aib]EGTFTSDYSIAMDEIHQKDFVDWLLAEKC (bridge 16-20) [triple agonist of SEQ ID NO: 80] the “In vitro Activity Compared to Native Peptide (%) vs. GLP-1” value was 8.1%.
With [Acetyl(2-(4-imidazolyl))][Aib]QGTFTSDYSKYLDEKRQKEFVQWLLNTC (bridge 16-20) [triple agonist of SEQ ID NO: 81] the “In vitro Activity Compared to Native Peptide (%) vs. GLP-1” value was 7.8%.
With [Acetyl(2-(4-imidazolyl))][Aib]QGTFTSDYSKYLDEKRQKEFVQWLLDTC (bridge 16-20) [triple agonist of SEQ ID NO: 82] the “In vitro Activity Compared to Native Peptide (%) vs. GLP-1” value was 9.5%.
In the case of [Acetyl(2-(4-imidazolyl))][Aib]EGTFTSDYSIAMDEIHQKDFVNWLLAQC (bridge 16-20) [triple agonist of SEQ ID NO: 83], the “In vitro Activity Compared to Native Peptide (%) vs. GLP-1” value is reported as 47.3%.
In the case of [Acetyl(2-(4-imidazolyl))][Aib]EGTFTSDYSIAMDEIHQKDFVDWLLAEC (bridge 16-20) [triple agonist of SEQ ID NO: 84], the “In vitro Activity Compared to Native Peptide (%) vs. GLP-1” value is reported as 4.2%.
With H[Aib]QGTFTSDVSKYLDGQAAQEFVAWLLAGC [triple agonist of SEQ ID NO: 9] the “In vitro Activity Compared to Native Peptide (%) vs. GLP-1” value was 32.1%.
For [Acetyl(2-(4-imidazolyl))][Aib]QGTFTSDYSIAMDEIHQKDFVNWLLAQC (bridge 16-20) [triple agonist of SEQ ID NO: 85], the “In vitro Activity Compared to Native Peptide (%) vs. GLP-1” value was 4.3%.
In the case of [Acetyl(2-(4-imidazolyl))][Aib]QGTFTSDYSKYLDEKRQKEFVNWLLAQC (bridge 16-20) [triple agonist of SEQ ID NO: 86], the “In vitro Activity Compared to Native Peptide (%) vs. GLP-1” value is reported as 28.4%.

Each binder was assayed against T1, human GIP receptor (assay: cell-based or functional assay).
[Acetyl(2-(4-imidazolyl))][Aib]QGTFTSDYSKCLDEKRAKEFVQWLLDHHPSSGQPPPS (bridge 16-20) [triple agonist of SEQ ID NO: 74] was tested, and the “In vitro Activity Compared to Native Peptide (%) vs. GIP” value was 1%.
H[Aib]QGTFTSDVSKYLDGQAAQEFVAWLLKGC [triple agonist of SEQ ID NO: 8] was tested, and the “In vitro Activity Compared to Native Peptide (%) vs. GIP” value was less than 0.1%.
Y[Aib]QGTFTSDYSKYLDEKAAKEFVQWLLDHHPSSGQPPPSC (bridge 16-20) [triple agonist of SEQ ID NO: 75] was tested, and the “In vitro Activity Compared to Native Peptide (%) vs. GIP” value was 18%.
Y[Aib]QGTFTSDYSKYLDEKRAKDFVQWLLDHHPSSGQPPPSC (bridge 16-20) [triple agonist of SEQ ID NO: 76] was tested, and the “In vitro Activity Compared to Native Peptide (%) vs. GIP” value was 11.7%.
Y[Aib]QGTFTSDYSKYLDEKAAKDFVQWLLDHHPSSGQPPPSC (bridge 16-20) [triple agonist of SEQ ID NO: 77] was tested, and the “In vitro Activity Compared to Native Peptide (%) vs. GIP” value was 35.5%.
H[Aib]QGTFTSDYSKYLDEKRQKEFVQWLLDTKC (bridge 16-20) [triple agonist of SEQ ID NO: 78] was tested, and the “In vitro Activity Compared to Native Peptide (%) vs. GIP” value was 0.12%.
In the case of H[Aib]EGTFTSDYSIAMDEIHQKDFVNWLLAQKC (bridge 16-20) [triple agonist of SEQ ID NO: 79], the “In vitro Activity Compared to Native Peptide (%) vs. GIP” value is reported as 1.4%.
H[Aib]EGTFTSDYSIAMDEIHQKDFVDWLLAEKC (bridge 16-20) [triple agonist of SEQ ID NO: 80] was tested, and the “In vitro Activity Compared to Native Peptide (%) vs. GIP” value was 0.1%.
In the case of [Acetyl(2-(4-imidazolyl))][Aib]QGTFTSDYSKYLDEKRQKEFVQWLLNTC (bridge 16-20) [triple agonist of SEQ ID NO: 81], the “In vitro Activity Compared to Native Peptide (%) vs. GIP” value is reported as less than 0.1%.
In the case of [Acetyl(2-(4-imidazolyl))][Aib]QGTFTSDYSKYLDEKRQKEFVQWLLDTC (bridge 16-20) [triple agonist of SEQ ID NO: 82], the “In vitro Activity Compared to Native Peptide (%) vs. GIP” value is reported as less than 0.1%.
[Acetyl(2-(4-imidazolyl))][Aib]EGTFTSDYSIAMDEIHQKDFVNWLLAQC (bridge 16-20) [triple agonist of SEQ ID NO: 83] was tested, and the “In vitro Activity Compared to Native Peptide (%) vs. GIP” value was 0.4%.
[Acetyl(2-(4-imidazolyl))][Aib]EGTFTSDYSIAMDEIHQKDFVDWLLAEC (bridge 16-20) [triple agonist of SEQ ID NO: 84] was tested, and the “In vitro Activity Compared to Native Peptide (%) vs. GIP” value was less than 0.1%.
H[Aib]QGTFTSDVSKYLDGQAAQEFVAWLLAGC [triple agonist of SEQ ID NO: 9] was tested, and the “In vitro Activity Compared to Native Peptide (%) vs. GIP” value was less than 0.1%.
In the case of [Acetyl(2-(4-imidazolyl))][Aib]QGTFTSDYSIAMDEIHQKDFVNWLLAQC (bridge 16-20) [triple agonist of SEQ ID NO: 85], the “In vitro Activity Compared to Native Peptide (%) vs. GIP” value is reported as 0.3%.
[Acetyl(2-(4-imidazolyl))][Aib]QGTFTSDYSKYLDEKRQKEFVNWLLAQC (bridge 16-20) [triple agonist of SEQ ID NO: 86] was tested, and the “In vitro Activity Compared to Native Peptide (%) vs. GIP” value was 0.2%.
